How the values were obtained:
GM12878 nuclei = assay: Peroxidase-mediated biotin labeling after transposition, western blot; format: biochemical, human
Method: Western blot. Whole cell lysate was generated by resuspending cells washed with 1×PBS in RIPA (Boston BioProducts) supplemented with 1× complete EDTA-free protease inhibitor cocktail (Roche). Cells were subject to sonication via a Sonic Dismembrator 100 (Fisher Scientific) at setting 2, with 3 pulses of 15 seconds on/off on ice. Lysates were clarified by centrifugation (15,000×g, 30 minutes, 4° C.) and their concentrations quantified with detergent-compatible Bradford assay (Thermo Fisher Scientific). All Western blots were run on NuPAGE 4-12% Bis-Tris protein gels (Thermo Fisher Scientific) and transferred to […] nitrocellulose membranes (GE Healthcare). Membranes were stained with Ponceau S, blocked with 3% milk in PBS-T, and incubated overnight with primary antibody and subsequently with secondary antibody after brief washing with PBS-T. Chemiluminescence was determined by applying ECL Western Blotting detection reagent (GE Healthcare) to membranes and imaging on an Amersham Imager 600 (GE Healthcare). Membranes were stripped with Restore PLUS Stripping Buffer (Thermo Fisher Scientific); streptavidin-HRP was inactivated with 15% hydrogen peroxide. […]

K562 nuclei = assay: iDAPT protein labeling, western blot of labeled nuclear lysates; format: biochemical, human
Method: (§1) DNA and protein tagging by iDAPT. All iDAPT proteomic labeling assays were performed as described below unless indicated otherwise. 2.5 μmol MEDS-A/B, 2 μmol enzyme, and 1 μmol hemin chloride per channel were incubated at room temperature for 1 hour. 1e7 cells per sample were washed (500×g, 5 minutes, 4° C.), lysed and triturated in 100 μL LB1 (10 mM Tris-HCl pH 7.5, 10 mM NaCl, 3 mM MgCl2, 1% BSA, 0.01% digitonin, 0.1% Tween-20, 0.1% NP-40, and 1× cOmplete EDTA-free protease inhibitor cocktail [Roche]) for 3 minutes, and subsequently supplemented with an additional 1 mL of LB2 (10 mM Tris-HCl pH 7.5, 10 mM NaCl, 3 mM MgCl2, 1% BSA, 0.1% Tween-20, and 1× protease inhibitor). Nuclei were pelleted (500×g, 10 minutes, 4° C.), resuspended with tagmentation reaction mixture (20% dimethylformamide, 10 mM MgCl2, 20 mM Tris-HCl pH 7.5, 33% 1×PBS, 1% BSA, 0.01% digitonin, 0.1% Tween-20, 500 μM biotin-phenol, 1× protease inhibitor, and 2 pmol enzyme equivalent of enzyme:DNA:heme complex in a total volume of 500 μL), and incubated at 37° C. for 30 minutes with agitation on a thermomixer (1,000 rpm). 5 μL of tagmentation mix was saved for quality assessment as described above for ATAC-seq/iDAPT-seq sample preparation. The remaining nuclear suspension was then washed 2× with 1×PBS supplemented with 500 μM biotin-phenol, 1% BSA, 0.1% Tween-20, and 1× protease inhibitor (3000×g, 5 minutes, 4° C.) and labeled with 1 mM hydrogen peroxide and 500 μM biotin-phenol for 1 minute in 1×PBS with 1× protease inhibitor in a volume of 500 μL. Peroxidation reactions were quenched with 500 μL 2× quenching buffer (10 mM Trolox, 20 mM sodium ascorbate, 20 mM NaN3, and 1× protease inhibitor in 1×PBS). Labeled nuclei were then pelleted, washed with 1× quenching buffer, resuspended in 500 μL RIPA containing protease inhibitors, and frozen at −80° C. Lysates were thawed on ice, sonicated via a Sonic Dismembrator 100 (Fisher Scientific, setting 3, 15 seconds, 4 pulses), and incubated on ice for 30 minutes after the addition of 1 μL benzonase (EMD Millipore). Lysates were clarified by centrifugation (15,000×g, 20 minutes, 4° C.), quantified via the detergent-compatible Bradford assay (Thermo Fisher Scientific), and subjected to either Western blotting or quantitative mass spectrometry analyses as described below. For NB4 cell analysis, an additional endogenous peroxidase blocking step was added after nuclear extraction and before tagmentation: nuclei were resuspended in 500 μL 1×PBS containing 1% BSA, 0.03% hydrogen peroxide, and 0.1% NaN3 and incubated on ice for 30 minutes. Nuclei were pelleted and washed 4× with 1×PBS/1% BSA (3000×g, 5 minutes, 4° C.). Residual hydrogen peroxide was monitored by colorimetric assessment of supernatant via Quantofix peroxides test stick (Sigma).
(§2) Western blotting analysis. Whole cell or nuclear lysates were generated by resuspending cells or nuclei in RIPA (Boston BioProducts) supplemented with 1× cOmplete EDTA-free protease inhibitor cocktail (Roche). […] Lysates were clarified by centrifugation (15,000×g, 20 minutes, 4° C.) and their concentrations quantified via the detergent-compatible Bradford assay (Thermo Fisher Scientific). […] Membranes were blocked with 3% milk in PBS-T and incubated overnight with primary antibody and subsequently with secondary antibody after brief washing with PBS-T. Chemiluminescence was determined by applying ECL Western Blotting detection reagent (GE Healthcare) to membranes and imaging on an Amersham Imager 600 (GE Healthcare). […]

HT1080 cells = assay: Co-immunofluorescence/ATAC-see analysis; format: cell-based, human
Method: Co-immunofluorescence/ATAC-see analysis. ATAC-see was performed similarly as previously described with slight modifications (Chen et al., Nat. Methods 13:1013-1020, 2016). Enzyme and transposon DNA were mixed at a 1:1.25 enzyme:MEDS-A/B-AF647 molar ratio and incubated at room temperature for 1 hour. Adherent cells were grown on glass coverslips (Fisher Scientific, 12-540A) until 80-90% confluent, washed with 1×PBS, fixed with 1% formaldehyde (Electron Microscopy Services) in 1×PBS for 10 minutes, and washed twice with ice-cold 1×PBS. Suspension cells were washed and resuspended with 1×PBS. 50,000 cells were added to poly-lysine slides and incubated at room temperature for 1 hour in a humidified chamber. An equal volume of 2% formaldehyde was added and incubated for 10 minutes, whereupon slides were washed twice with ice-cold 1×PBS. Immobilized cells were lysed by incubation with LB1 for 3 minutes followed by LB2 for 10 minutes at room temperature. Cells were then subject to tagmentation (20% dimethylformamide, 10 mM MgCl2, 20 mM Tris-HCl pH 7.5, 33% 1×PBS, 0.01% digitonin, 0.1% Tween-20, and either 80 pmol enzyme equivalent of enzyme:DNA complex in a total volume of 100 μL for adherent cells or 10 pmol enzyme equivalent of enzyme:DNA complex in a total volume of 50 μL for suspension cells) for 30 minutes at 37° C. in a humidified chamber. Subsequently, cells were washed with 50 mM EDTA and 0.01% SDS in 1×PBS three times for 15 minute each at 55° C., lysed for 10 minutes with 0.5% Triton X-100 in 1×PBS at room temperature, and blocked with 1% BSA and 10% goat serum in PBS-T for 1 hour in a humidified chamber. Primary antibody was added to slides in 1% BSA/PBS-T and incubated at 4° C. overnight; slides were then washed and subjected to secondary antibody staining for 1 hour. Slides were washed with PBS-T three times for 15 minutes each, stained with DAPI (Sigma, 1 μg/mL) for 1 minute, washed with PBS for 10 minutes, and mounted with Fluorescence Mounting Medium (Dako). Confocal microscopy images were taken with an LSM 880 Axio Imager 2 at 63× magnification (Zeiss). Images were processed with Fiji/ImageJ v2.0.0.
Primary antibodies used were anti-RNA polymerase II CTD repeat YSPTSPS (phospho S2) (rabbit, Abcam ab5095, 1:500), anti-H3K27Ac (rabbit, Abcam ab4729, 1:500), anti-H3K9me3 (rabbit, Abcam ab8898, 1:500), anti-CCDCl2 (rabbit, Atlas Antibodies HPA060530, 1:200), anti-SNRPA (mouse, 3F9-1F7, Sigma-Aldrich WH0006626M1, 1:100). […]
Quantitative image analyses were performed with CellProfiler v3.1.5. […] Pearson correlation coefficients were determined by comparing ATAC-see pixel intensities with corresponding immunofluorescence intensity values within each ROI to assess the nucleus-to-nucleus variation in colocalization. […]

HEK293T nuclei = assay: iDAPT protein labeling, western blot of labeled nuclear lysates; format: biochemical, human; settings: extracted HEK293T nuclei
Method: as §1, §2

| Molecule | biotinylation signal (streptavidin) (GM12878 nuclei) | biotin labeling (K562 nuclei) | ATAC-see correlation with H3K9me3 immunofluorescence (HT1080 cells; marker of transcriptionally inactive chromatin) | ATAC-see correlation with H3K27Ac and RNAPII S2P immunofluorescence signal (HT1080 cells; markers of transcriptionally active chromatin) | peroxidase-dependent biotin signal (HEK293T nuclei) |
| --- | --- | --- | --- | --- | --- |
| TP5: Tn5 transposase-GSGAGA linker-APEX2 peroxidase fusion, C-terminal FLAG; amino acid SEQ ID NO: 31 (protein, C-terminal FLAG) MITSALHRAADWAKSVFSSAALGDPRRTARLVNVAAQLAKYSGKSITISSEGSKAMQEGAYRFIRNPNVSAEAIRKAGAMQTVKLAQEFPELLAIEDTTSLSYRHQVAEELGKLGSIQDKSRGWWVHSVLLLEATTFRTVGLLHQEWWMRPDDPADADEKESGKWLAAAATSRLRMGSMMSNVIAVCDREADIHAYLQDKLAHNERFVVRSKHPRKDVESGLYLYDHLKNQPELGGYQISIPQKGVVDKRGKRKNRPARKASLSLRSGRITLKQGNITLNAVLAEEINPPKGETPLKWLLLTSEPVESLAQALRVIDIYTHRWRIEEFHKAWKTGAGAERQRMEEPDNLERMVSILSFVAVRLLQLRESFTPPQALRAQGLLKEAEHVESQSAETVLTPDECQLLGYLDKGKRKRKEKAGSLQWAYMAIARLGGFMDSKRTGIASWGALWEGWEALQSKLDGFLAAKDLMAQGIKIGSGAGAGKSYPTVSADYQDAVEKAKKKLRGFIAEKRCAPLMLRLAFHSAGTFDKGTKTGGPFGTIKHPAELAHSANNGLDIAVRLLEPLKAEFPILSYADFYQLAGVVAVEVTGGPKVPFHPGREDKPEPPPEGRLPDPTKGSDHLRDVFGKAMGLTDQDIVALSGGHTIGAAHKERSGFEGPWTSNPLIFDNSYFTELLSGEKEGLLQLPSDKALLSDPVFRPLVDKYAADEDAFFADYAEAHQKLSELGFADADYKDDDDK | highest signals | highest levels of labeling | – | – | – |
| Tn5-F: FLAG-tagged Tn5 transposase purified in-house, negative control probe; amino acid SEQ ID NO: 19 (protein, FLAG tag) MITSALHRAADWAKSVFSSAALGDPRRTARLVNVAAQLAKYSGKSITISSEGSKAMQEGAYRFIRNPNVSAEAIRKAGAMQTVKLAQEFPELLAIEDTTSLSYRHQVAEELGKLGSIQDKSRGWWVHSVLLLEATTFRTVGLLHQEWWMRPDDPADADEKESGKWLAAAATSRLRMGSMMSNVIAVCDREADIHAYLQDKLAHNERFVVRSKHPRKDVESGLYLYDHLKNQPELGGYQISIPQKGVVDKRGKRKNRPARKASLSLRSGRITLKQGNITLNAVLAEEINPPKGETPLKWLLLTSEPVESLAQALRVIDIYTHRWRIEEFHKAWKTGAGAERQRMEEPDNLERMVSILSFVAVRLLQLRESFTPPQALRAQGLLKEAEHVESQSAETVLTPDECQLLGYLDKGKRKRKEKAGSLQWAYMAIARLGGFMDSKRTGIASWGALWEGWEALQSKLDGFLAAKDLMAQGIKIDYKDDDDK | – | – | similarly poor correlations | similarly positive correlations | low signal |

Source: patent US20230024461A1, “METHODS FOR DUAL DNA/PROTEIN TAGGING OF OPEN CHROMATIN” (Beth Israel Deaconess Medical Center, Inc., priority 2019, published 2023)
